Measured values as given in publication PMC10041115, “Cryo-EM structure of the four-subunit Rhodobacter sphaeroides cytochrome bc1 complex in styrene maleic acid nanodiscs” (Proceedings of the National Academy of Sciences of the …, 2023).

Assays:
[1] = target: T1, four-subunit cytochrome bc1 complex (WT) in SMA nanodiscs (Cereibacter sphaeroides, UniProt Q02761+Q02762); experiment: cryo-EM structure, […] Å; format: binding; conditions: natively bound, co-purified; Qo site of one cyt b; isoprene tail truncated in model; redox state not determined; H-bond to Rieske His152
T1 construct: gene petB; native purification from photosynthetically grown cells, SMA lipid nanodisc, His10 tag on cyt c1, dimer; SIV 124 residues, 79-107 resolved; with Cytochrome c1; Ubiquinol-cytochrome c reductase subunit IV

[2] = target: T2, cytochrome b subunit of the Rhodobacter sphaeroides cytochrome bc1 complex (Rhodobacter sphaeroides, UniProt Q02761 1-445); experiment: cryo-EM structure; conditions: both partners purified
T2 construct: also called cyt b; source: endogenous, R. sphaeroides grown photosynthetically; SMA-solubilised membranes, purified in native nanodiscs (Ni-NTA, sucrose gradient, SEC)
T2 sequence (looked up): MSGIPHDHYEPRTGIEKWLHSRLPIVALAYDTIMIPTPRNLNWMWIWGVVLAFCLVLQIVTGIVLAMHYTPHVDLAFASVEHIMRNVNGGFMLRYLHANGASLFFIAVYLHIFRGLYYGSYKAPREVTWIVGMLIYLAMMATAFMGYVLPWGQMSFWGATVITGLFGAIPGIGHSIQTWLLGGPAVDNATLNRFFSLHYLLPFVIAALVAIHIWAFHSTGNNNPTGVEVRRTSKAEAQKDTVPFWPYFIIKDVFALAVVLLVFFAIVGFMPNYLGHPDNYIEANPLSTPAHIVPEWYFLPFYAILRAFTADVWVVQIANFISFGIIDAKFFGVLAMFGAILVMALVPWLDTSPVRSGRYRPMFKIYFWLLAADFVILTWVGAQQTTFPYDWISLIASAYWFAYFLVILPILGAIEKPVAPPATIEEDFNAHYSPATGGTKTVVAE

[3] = target: the molecule itself; experiment: cryo-EM structure; purified four-subunit cyt bc1 in SMA native lipid nanodiscs, no inhibitors added, 20 mM Tris-HCl pH 8, 200 mM NaCl; C1 consensus map at 2.9 Å and a focused class at 3.75 Å (FSC 0.5)

COC1=C(OC)C(=O)C(C/C=C(\C)CC/C=C(\C)CC/C=C(\C)CC/C=C(\C)CC/C=C(\C)CC/C=C(\C)CC/C=C(\C)CC/C=C(\C)CC/C=C(\C)CCC=C(C)C)=C(C)C1=O [U10, ubiquinone-10]
cryo-EM structure, 2.9 Å [1]: a ubiquinone-10 molecule bound in the Qo site of one of the cyt b subunits

B1: Rieske iron-sulfur protein subunit of the Rhodobacter sphaeroides cytochrome bc1 complex (natural protein, UniProt Q02762 1-187, looked up)
chain: MSNAEDHAGTRRDFLYYATAGAGAVATGAAVWPLINQMNPSADVQALASIFVDVSSVEPGVQLTVKFLGKPIFIRRRTEADIELGRSVQLGQLVDTNARNANIDAGAEATDQNRTLDEAGEWLVMWGVCTHLGCVPIGGVSGDFGGWFCPCHGSHYDSAGRIRKGPAPENLPIPLAKFIDETTIQLG
notes: also called Rieske subunit; Rieske ISP; source: endogenous, R. sphaeroides grown photosynthetically; SMA-solubilised membranes, purified in native nanodiscs (Ni-NTA, sucrose gradient, SEC)
binding result [2]: binds

B2: four-subunit Rhodobacter sphaeroides cytochrome bc1 complex (one monomer of the dimeric complex: cyt b, cyt c1, Rieske subunit, SIV) (complex)
chain 1: MSGIPHDHYEPRTGIEKWLHSRLPIVALAYDTIMIPTPRNLNWMWIWGVVLAFCLVLQIVTGIVLAMHYTPHVDLAFASVEHIMRNVNGGFMLRYLHANGASLFFIAVYLHIFRGLYYGSYKAPREVTWIVGMLIYLAMMATAFMGYVLPWGQMSFWGATVITGLFGAIPGIGHSIQTWLLGGPAVDNATLNRFFSLHYLLPFVIAALVAIHIWAFHSTGNNNPTGVEVRRTSKAEAQKDTVPFWPYFIIKDVFALAVVLLVFFAIVGFMPNYLGHPDNYIEANPLSTPAHIVPEWYFLPFYAILRAFTADVWVVQIANFISFGIIDAKFFGVLAMFGAILVMALVPWLDTSPVRSGRYRPMFKIYFWLLAADFVILTWVGAQQTTFPYDWISLIASAYWFAYFLVILPILGAIEKPVAPPATIEEDFNAHYSPATGGTKTVVAE
chain 2: AGGGHVEDVPFSFEGPFGTFDQHQLQRGLQVYTEVCAACHGMKFVPIRSLSEPGGPELPEDQVRAYATQFTVTDEETGEDREGKPTDHFPHSALENAADLSLMAKARAGFHGPMGTGISQLFNGIGGPEYIYSVLTGFPEEPPKCAEGHEPDGFYYNRAFQNGSVPDTCKDANGVKTTAGSWIAMPPPLMDDLVEYADGHDASVHAMAEDVSAFLMWAAEPKLMARKQAGFTAVMFLTVLSVLLYLTNKRLWAGVKGKKKTNV
chain 3: MSNAEDHAGTRRDFLYYATAGAGAVATGAAVWPLINQMNPSADVQALASIFVDVSSVEPGVQLTVKFLGKPIFIRRRTEADIELGRSVQLGQLVDTNARNANIDAGAEATDQNRTLDEAGEWLVMWGVCTHLGCVPIGGVSGDFGGWFCPCHGSHYDSAGRIRKGPAPENLPIPLAKFIDETTIQLG
chain 4: MFSFIDDIPSFEQIKARVRDDLRKHGWEKRWNDSRLVQKSRELLNDEELKIDPATWIWKRMPSREEVAARRQRDFETVWKYRYRLGGFASGALLALALAGIFSTGNFGGSSDAGNRPSVVYPIE
notes: also called cyt bc1; cyt bc1-nanodisc complex
stoichiometry N [3]: 2
